Measured values published in IntAct's records for PubMed 28164238.

B1: T-box transcription factor TBX5 (Mus musculus), P70326 (parent)
chain: MADTDEGFGLARTPLEPDSKDRSCDSKPESALGAPSKSPSSPQAAFTQQGMEGIKVFLHERELWLKFHEVGTEMIITKAGRRMFPSYKVKVTGLNPKTKYILLMDIVPADDHRYKFADNKWSVTGKAEPAMPGRLYVHPDSPATGAHWMRQLVSFQKLKLTNNHLDPFGHIILNSMHKYQPRLHIVKADENNGFGSKNTAFCTHVFPETAFIAVTSYQNHKITQLKIENNPFAKGFRGSDDLELHRMSRMQSKEYPVVPRSTVRHKVTSNHSPFSSETRALSTSSNLGSQYQCENGVSGPSQDLLPPPNPYPLAQEHSQIYHCTKRKDEECSSTEHPYKKPYMETSPSEEDTFYRSGYPQQQGLSTSYRTESAQRQACMYASSAPPSEPVPSLEDISCNTWPSMPSYSSCTVTTVQPMDRLPYQHFSAHFTSGPLVPRLAGMANHGSPQLGEGMFQHQTSVAHQPVVRQCGPQTGLQSPGGLQPPEFLYTHGVPRTLSPHQYHSVHGVGMVPEWSENS

Assays:
[1] = variants of: B1; settings: with klf13_mouse Klf13, Q9JJZ6
Chain of klf13_mouse Klf13, Q9JJZ6 (Q9JJZ6 whole entry): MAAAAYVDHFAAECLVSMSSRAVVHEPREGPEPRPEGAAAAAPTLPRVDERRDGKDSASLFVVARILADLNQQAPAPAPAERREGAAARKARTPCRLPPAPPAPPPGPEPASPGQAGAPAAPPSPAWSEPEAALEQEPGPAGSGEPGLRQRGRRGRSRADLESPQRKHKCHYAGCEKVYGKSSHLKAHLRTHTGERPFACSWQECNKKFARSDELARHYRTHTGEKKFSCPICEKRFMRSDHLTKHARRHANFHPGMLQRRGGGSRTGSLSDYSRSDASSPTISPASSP

[2] = variants of: B1; settings: with nkx25_mouse Nkx2-5, P42582
Chain of nkx25_mouse Nkx2-5, P42582 (P42582 whole entry): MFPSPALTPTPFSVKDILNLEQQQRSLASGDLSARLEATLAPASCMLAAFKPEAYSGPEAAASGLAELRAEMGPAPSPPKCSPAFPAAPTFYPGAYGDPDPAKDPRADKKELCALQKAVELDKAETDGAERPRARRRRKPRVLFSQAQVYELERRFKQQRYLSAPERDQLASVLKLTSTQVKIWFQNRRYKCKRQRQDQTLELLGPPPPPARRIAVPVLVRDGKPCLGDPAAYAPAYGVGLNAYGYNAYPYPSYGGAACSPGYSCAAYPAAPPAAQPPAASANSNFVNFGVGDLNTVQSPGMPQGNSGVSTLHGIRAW

Row | Variant | effect of a mutation on the interaction [1] | effect of a mutation on the interaction [2]
1 | T144I | decreasing interaction strength | decreasing interaction strength
2 | R134C | with no effect | with no effect
3 | R237Q | decreasing interaction strength | decreasing interaction strength
4 | G195A | with no effect | decreasing interaction strength
5 | W121G | decreasing interaction strength | with no effect
6 | T223M | decreasing interaction strength | decreasing interaction strength
7 | G169R | decreasing interaction strength | decreasing interaction strength
